The record followed here is patent publication US20190177423A1.

The term EC50 denotes the midpoint of the concentration-response curve. Low values mean an effect from little substance, high ones a need for much substance.

In experiment [1] the target is FcγRIIIa(V158) (Sino Biological Inc, 10389-H08C1) (UniProt P08637). In words: Binding ELISA on FcγRIIIa(V158); relative to MIL62 as 100%.
Experiment [2] shares this target. Briefly: Binding ELISA: FcγRIIIa captured on anti-His coated plate; IgG pre-complexed with goat F(ab')2 anti-human-κ (1:2 w/w); HRP anti-human IgG F(ab')2 detection. In general terms: In an ELISA, binding on a coated surface is turned into a signal by an enzyme label.

Sequence of FcγRIIIa(V158) (Sino Biological Inc, 10389-H08C1) (P08637 17-208 F176V): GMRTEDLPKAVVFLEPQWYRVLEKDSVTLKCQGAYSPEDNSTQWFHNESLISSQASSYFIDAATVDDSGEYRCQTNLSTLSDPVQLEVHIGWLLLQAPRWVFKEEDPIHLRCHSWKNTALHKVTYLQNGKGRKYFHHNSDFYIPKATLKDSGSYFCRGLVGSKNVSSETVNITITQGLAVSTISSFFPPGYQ

RITUXAN (rituximab) (antibody): the Relative Bioactivity (%) in experiment [1] worked out at 26.8%. The substance also displayed an EC50 in experiment [2] of 0.194 µg/mL.
